According to patent US20190233495A1 (Sanofi, published 2019):
One block for each binder: values may come before it. Non-standard residues stand in square brackets, D forms with d. 1Nal = N[C@@H](Cc1cccc2ccccc12)C(=O)O; αMeK = C[C@](N)(CCCCN)C(=O)O; Nle = CCCC[C@H](N)C(=O)O; Aib = CC(C)(N)C(=O)O

Target: T1, RXFP1 receptor (UniProt Q9HBX9 1-757, limits assumed)
T1 sequence (looked up): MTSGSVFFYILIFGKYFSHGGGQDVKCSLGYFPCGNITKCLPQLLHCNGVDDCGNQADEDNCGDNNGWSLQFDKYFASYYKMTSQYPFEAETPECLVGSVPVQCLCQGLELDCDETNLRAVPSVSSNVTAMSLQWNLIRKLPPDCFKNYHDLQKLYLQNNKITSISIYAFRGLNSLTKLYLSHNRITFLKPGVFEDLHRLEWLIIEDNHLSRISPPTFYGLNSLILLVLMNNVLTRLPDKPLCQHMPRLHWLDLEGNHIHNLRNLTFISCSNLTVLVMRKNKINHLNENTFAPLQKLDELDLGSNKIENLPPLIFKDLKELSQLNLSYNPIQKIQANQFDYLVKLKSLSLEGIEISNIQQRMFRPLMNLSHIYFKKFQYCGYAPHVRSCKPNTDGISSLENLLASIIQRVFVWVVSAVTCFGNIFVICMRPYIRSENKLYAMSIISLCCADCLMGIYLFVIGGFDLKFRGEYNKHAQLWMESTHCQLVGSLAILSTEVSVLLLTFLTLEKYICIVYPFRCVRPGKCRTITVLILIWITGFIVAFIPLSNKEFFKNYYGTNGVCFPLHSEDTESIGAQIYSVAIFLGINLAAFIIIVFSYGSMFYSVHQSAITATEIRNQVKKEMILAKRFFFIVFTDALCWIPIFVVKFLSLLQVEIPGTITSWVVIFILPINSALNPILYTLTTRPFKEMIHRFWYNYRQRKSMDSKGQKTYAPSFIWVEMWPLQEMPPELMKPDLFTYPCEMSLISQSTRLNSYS
Test: cell-based or functional assay

- cAMP assay in OVCAR 5 cells EC50: 52.1 nM
- cAMP assay in OVCAR 5 cells Emax: 104%
B1: SEQ ID NO: 18 (peptide)
peptide: Ac-LEGREKVRAAI[Aib][Aib]EGMSKWS[Aib]RK-NH2
SMILES: CC[C@H](C)[C@H](NC(=O)[C@H](C)NC(=O)[C@H](C)NC(=O)[C@H](CCCNC(=N)N)NC(=O)[C@@H](NC(=O)[C@H](CCCCN)NC(=O)[C@H](CCC(=O)O)NC(=O)[C@H](CCCNC(=N)N)NC(=O)CNC(=O)[C@H](CCC(=O)O)NC(=O)[C@H](CC(C)C)NC(C)=O)C(C)C)C(=O)NC(C)(C)C(=O)NC(C)(C)C(=O)N[C@@H](CCC(=O)O)C(=O)NCC(=O)N[C@@H](CCSC)C(=O)N[C@@H](CO)C(=O)N[C@@H](CCCCN)C(=O)N[C@@H](Cc1c[nH]c2ccccc12)C(=O)N[C@@H](CO)C(=O)NC(C)(C)C(=O)N[C@@H](CCCNC(=N)N)C(=O)N[C@@H](CCCCN)C(N)=O

- cAMP assay in OVCAR 5 cells EC50: 4.6 nM
- cAMP assay in OVCAR 5 cells Emax: 101%
B2: SEQ ID NO: 16 (peptide)
peptide: Ac-LEGREKVRAAI[Aib][Aib]EGMSTWSKRKK-NH2
SMILES: CC[C@H](C)[C@H](NC(=O)[C@H](C)NC(=O)[C@H](C)NC(=O)[C@H](CCCNC(=N)N)NC(=O)[C@@H](NC(=O)[C@H](CCCCN)NC(=O)[C@H](CCC(=O)O)NC(=O)[C@H](CCCNC(=N)N)NC(=O)CNC(=O)[C@H](CCC(=O)O)NC(=O)[C@H](CC(C)C)NC(C)=O)C(C)C)C(=O)NC(C)(C)C(=O)NC(C)(C)C(=O)N[C@@H](CCC(=O)O)C(=O)NCC(=O)N[C@@H](CCSC)C(=O)N[C@@H](CO)C(=O)N[C@H](C(=O)N[C@@H](Cc1c[nH]c2ccccc12)C(=O)N[C@@H](CO)C(=O)N[C@@H](CCCCN)C(=O)N[C@@H](CCCNC(=N)N)C(=O)N[C@@H](CCCCN)C(=O)N[C@@H](CCCCN)C(N)=O)[C@@H](C)O

- cAMP assay in OVCAR 5 cells EC50: 28.2 nM
- cAMP assay in OVCAR 5 cells Emax: 99%
B3: SEQ ID NO: 12 (peptide)
peptide: H-[Aib]EGREKVRAQI[Aib][Aib]EGMSKWSKRKK-NH2
SMILES: CC[C@H](C)[C@H](NC(=O)[C@H](CCC(N)=O)NC(=O)[C@H](C)NC(=O)[C@H](CCCNC(=N)N)NC(=O)[C@@H](NC(=O)[C@H](CCCCN)NC(=O)[C@H](CCC(=O)O)NC(=O)[C@H](CCCNC(=N)N)NC(=O)CNC(=O)[C@H](CCC(=O)O)NC(=O)C(C)(C)N)C(C)C)C(=O)NC(C)(C)C(=O)NC(C)(C)C(=O)N[C@@H](CCC(=O)O)C(=O)NCC(=O)N[C@@H](CCSC)C(=O)N[C@@H](CO)C(=O)N[C@@H](CCCCN)C(=O)N[C@@H](Cc1c[nH]c2ccccc12)C(=O)N[C@@H](CO)C(=O)N[C@@H](CCCCN)C(=O)N[C@@H](CCCNC(=N)N)C(=O)N[C@@H](CCCCN)C(=O)N[C@@H](CCCCN)C(N)=O

- cAMP assay in OVCAR 5 cells EC50: 14.4 nM
- cAMP assay in OVCAR 5 cells Emax: 99%
B4: SEQ ID NO: 2 (peptide)
peptide: Ac-LEGREKVRAQI[Aib][Aib]EGMSKWSKRKK-NH2
SMILES: CC[C@H](C)[C@H](NC(=O)[C@H](CCC(N)=O)NC(=O)[C@H](C)NC(=O)[C@H](CCCNC(=N)N)NC(=O)[C@@H](NC(=O)[C@H](CCCCN)NC(=O)[C@H](CCC(=O)O)NC(=O)[C@H](CCCNC(=N)N)NC(=O)CNC(=O)[C@H](CCC(=O)O)NC(=O)[C@H](CC(C)C)NC(C)=O)C(C)C)C(=O)NC(C)(C)C(=O)NC(C)(C)C(=O)N[C@@H](CCC(=O)O)C(=O)NCC(=O)N[C@@H](CCSC)C(=O)N[C@@H](CO)C(=O)N[C@@H](CCCCN)C(=O)N[C@@H](Cc1c[nH]c2ccccc12)C(=O)N[C@@H](CO)C(=O)N[C@@H](CCCCN)C(=O)N[C@@H](CCCNC(=N)N)C(=O)N[C@@H](CCCCN)C(=O)N[C@@H](CCCCN)C(N)=O

- cAMP assay in OVCAR 5 cells EC50: 11.6 nM
- cAMP assay in OVCAR 5 cells Emax: 90%
B5: SEQ ID NO: 17 (peptide)
peptide: Ac-LEGREKVRAAI[Aib][Aib]EG[Nle]STWS[Aib]RKK-NH2
SMILES: CCCC[C@H](NC(=O)CNC(=O)[C@H](CCC(=O)O)NC(=O)C(C)(C)NC(=O)C(C)(C)NC(=O)[C@@H](NC(=O)[C@H](C)NC(=O)[C@H](C)NC(=O)[C@H](CCCNC(=N)N)NC(=O)[C@@H](NC(=O)[C@H](CCCCN)NC(=O)[C@H](CCC(=O)O)NC(=O)[C@H](CCCNC(=N)N)NC(=O)CNC(=O)[C@H](CCC(=O)O)NC(=O)[C@H](CC(C)C)NC(C)=O)C(C)C)[C@@H](C)CC)C(=O)N[C@@H](CO)C(=O)N[C@H](C(=O)N[C@@H](Cc1c[nH]c2ccccc12)C(=O)N[C@@H](CO)C(=O)NC(C)(C)C(=O)N[C@@H](CCCNC(=N)N)C(=O)N[C@@H](CCCCN)C(=O)N[C@@H](CCCCN)C(N)=O)[C@@H](C)O

- cAMP assay in OVCAR 5 cells EC50: 18.2 nM
- cAMP assay in OVCAR 5 cells Emax: 97%
B6: SEQ ID NO: 19 (peptide)
peptide: Ac-LEGREKVRA[Aib]I[Aib][Aib]EG[Nle]STWSKRKK-NH2
SMILES: CCCC[C@H](NC(=O)CNC(=O)[C@H](CCC(=O)O)NC(=O)C(C)(C)NC(=O)C(C)(C)NC(=O)[C@@H](NC(=O)C(C)(C)NC(=O)[C@H](C)NC(=O)[C@H](CCCNC(=N)N)NC(=O)[C@@H](NC(=O)[C@H](CCCCN)NC(=O)[C@H](CCC(=O)O)NC(=O)[C@H](CCCNC(=N)N)NC(=O)CNC(=O)[C@H](CCC(=O)O)NC(=O)[C@H](CC(C)C)NC(C)=O)C(C)C)[C@@H](C)CC)C(=O)N[C@@H](CO)C(=O)N[C@H](C(=O)N[C@@H](Cc1c[nH]c2ccccc12)C(=O)N[C@@H](CO)C(=O)N[C@@H](CCCCN)C(=O)N[C@@H](CCCNC(=N)N)C(=O)N[C@@H](CCCCN)C(=O)N[C@@H](CCCCN)C(N)=O)[C@@H](C)O

- cAMP assay in OVCAR 5 cells EC50: 24.4 nM
- cAMP assay in OVCAR 5 cells Emax: 104%
B7: SEQ ID NO: 15 (peptide)
peptide: Ac-LEGREKVRAQI[Aib][Aib]EG[Nle]ST[1Nal]SKRKK-NH2
SMILES: CCCC[C@H](NC(=O)CNC(=O)[C@H](CCC(=O)O)NC(=O)C(C)(C)NC(=O)C(C)(C)NC(=O)[C@@H](NC(=O)[C@H](CCC(N)=O)NC(=O)[C@H](C)NC(=O)[C@H](CCCNC(=N)N)NC(=O)[C@@H](NC(=O)[C@H](CCCCN)NC(=O)[C@H](CCC(=O)O)NC(=O)[C@H](CCCNC(=N)N)NC(=O)CNC(=O)[C@H](CCC(=O)O)NC(=O)[C@H](CC(C)C)NC(C)=O)C(C)C)[C@@H](C)CC)C(=O)N[C@@H](CO)C(=O)N[C@H](C(=O)N[C@@H](Cc1cccc2ccccc12)C(=O)N[C@@H](CO)C(=O)N[C@@H](CCCCN)C(=O)N[C@@H](CCCNC(=N)N)C(=O)N[C@@H](CCCCN)C(=O)N[C@@H](CCCCN)C(N)=O)[C@@H](C)O

- cAMP assay in OVCAR 5 cells EC50: 19.2 nM
- cAMP assay in OVCAR 5 cells Emax: 97%
B8: SEQ ID NO: 13 (peptide)
peptide: Ac-LEGREKVRAQI[Aib][Aib]EG[Nle]STWSKRKK-NH2
SMILES: CCCC[C@H](NC(=O)CNC(=O)[C@H](CCC(=O)O)NC(=O)C(C)(C)NC(=O)C(C)(C)NC(=O)[C@@H](NC(=O)[C@H](CCC(N)=O)NC(=O)[C@H](C)NC(=O)[C@H](CCCNC(=N)N)NC(=O)[C@@H](NC(=O)[C@H](CCCCN)NC(=O)[C@H](CCC(=O)O)NC(=O)[C@H](CCCNC(=N)N)NC(=O)CNC(=O)[C@H](CCC(=O)O)NC(=O)[C@H](CC(C)C)NC(C)=O)C(C)C)[C@@H](C)CC)C(=O)N[C@@H](CO)C(=O)N[C@H](C(=O)N[C@@H](Cc1c[nH]c2ccccc12)C(=O)N[C@@H](CO)C(=O)N[C@@H](CCCCN)C(=O)N[C@@H](CCCNC(=N)N)C(=O)N[C@@H](CCCCN)C(=O)N[C@@H](CCCCN)C(N)=O)[C@@H](C)O

- cAMP assay in OVCAR 5 cells EC50: 1.8 nM
- cAMP assay in OVCAR 5 cells Emax: 97%
B9: SEQ ID NO: 20 (peptide)
peptide: Ac-LEGREKVRA[Aib]I[Aib][Aib]EG[Nle]STWS[αMeK]RKK-NH2
SMILES: CCCC[C@H](NC(=O)CNC(=O)[C@H](CCC(=O)O)NC(=O)C(C)(C)NC(=O)C(C)(C)NC(=O)[C@@H](NC(=O)C(C)(C)NC(=O)[C@H](C)NC(=O)[C@H](CCCNC(=N)N)NC(=O)[C@@H](NC(=O)[C@H](CCCCN)NC(=O)[C@H](CCC(=O)O)NC(=O)[C@H](CCCNC(=N)N)NC(=O)CNC(=O)[C@H](CCC(=O)O)NC(=O)[C@H](CC(C)C)NC(C)=O)C(C)C)[C@@H](C)CC)C(=O)N[C@@H](CO)C(=O)N[C@H](C(=O)N[C@@H](Cc1c[nH]c2ccccc12)C(=O)N[C@@H](CO)C(=O)N[C@@](C)(CCCCN)C(=O)N[C@@H](CCCNC(=N)N)C(=O)N[C@@H](CCCCN)C(=O)N[C@@H](CCCCN)C(N)=O)[C@@H](C)O

- cAMP assay in OVCAR 5 cells EC50: 32.8 nM
- cAMP assay in OVCAR 5 cells Emax: 106%
B10: SEQ ID NO: 14 (peptide)
peptide: Ac-LEGREKVRAQI[Aib][Aib]EG[Nle]SK[1Nal]SKRKK-NH2
SMILES: CCCC[C@H](NC(=O)CNC(=O)[C@H](CCC(=O)O)NC(=O)C(C)(C)NC(=O)C(C)(C)NC(=O)[C@@H](NC(=O)[C@H](CCC(N)=O)NC(=O)[C@H](C)NC(=O)[C@H](CCCNC(=N)N)NC(=O)[C@@H](NC(=O)[C@H](CCCCN)NC(=O)[C@H](CCC(=O)O)NC(=O)[C@H](CCCNC(=N)N)NC(=O)CNC(=O)[C@H](CCC(=O)O)NC(=O)[C@H](CC(C)C)NC(C)=O)C(C)C)[C@@H](C)CC)C(=O)N[C@@H](CO)C(=O)N[C@@H](CCCCN)C(=O)N[C@@H](Cc1cccc2ccccc12)C(=O)N[C@@H](CO)C(=O)N[C@@H](CCCCN)C(=O)N[C@@H](CCCNC(=N)N)C(=O)N[C@@H](CCCCN)C(=O)N[C@@H](CCCCN)C(N)=O
